Legend:
[1] = tested on: patients with Type 2 diabetes mellitus (T2DM); assay: ALT increase reported on AE form (Example 2); conditions: on-treatment period
patients with T2DM [2] = assay: Major cardiovascular events adjudicated by CAC (Example 3)
[3] = tested on: patients with Type 2 diabetes mellitus (T2DM); assay: Events adjudicated as allergic reaction by ARAC (Example 2); format: in vivo, human
Source text: The mission of the ARAC will be to adjudicate, in a timely manner, all allergic, or possible allergic events.
In case a patient experiences an allergic reaction or an allergic-like reaction this has to be reported as an adverse event and recorded in the e-CRF on the specific AE form for suspected allergic event. Additional information is collected on specific allergic reaction complementary form. Allergic reaction or possible allergic reaction will be adjudicated by the ARAC (Section 5.4.2).
The number (%) of patients with events adjudicated as allergic reactions by ARAC and with events adjudicated by ARAC as possibly related to the IMP will be summarized by treatment group. All the allergic events reported by the investigators on the AE form for suspected allergic event and its associated complementary forms (confirmed or not confirmed by ARAC) will be listed.

patients with T2DM [4] = assay: Pen-related event questionnaire (Example 3); conditions: on-treatment period
[5] = tested on: patients with Type 2 diabetes mellitus (T2DM); assay: Patients receiving rescue therapy (Example 2); format: in vivo, human
Source text: Routing measurements and central lab alerts were set up to ensure that glycemic parameters remained under thresholds values predefined for rescue therapy. If values were above these thresholds, and no explanations were found, or appropriate actions failed, or a dose >60 U was necessary to decrease glycemic parameters below the threshold values, rescue therapy was to be introduced along with IMP and metformin (if taken). Newly initiated anti-diabetic medications, or an increase from baseline in background metformin dose were considered as rescue therapy.

patients with T2DM [6] = assay: Patients requiring rescue therapy (Example 3); format: in vivo, human
Source text: Routine fasting SMPG and central lab alerts on FPG (and HbA1c after Week 12) were set up to ensure that glycemic parameters remained under predefined threshold values. If values were above predefined thresholds, and no explanations were found, or appropriate actions failed, or a dose >60 U was necessary to decrease FPG and/or HbA1c below the threshold values, rescue therapy was to be introduced along with IMP and metformin (if taken). Newly initiated anti-diabetic medications, or an increase from baseline in background metformin dose were considered as a rescue therapy.

[7] = tested on: patients with Type 2 diabetes mellitus (T2DM); assay: Symptomatic hypoglycemia (Example 2)
patients with T2DM [8] = assay: Increased calcitonin reported on AE form (Example 3); format: in vivo, human
Source text: During the course of the study, if calcitonin value is found […] (5.9 pmol/L): • A retest should be performed by the central laboratory within 7 days. In addition, blood should be collected and sent to the central laboratory for measurement of: calcium, phosphorus, gastrin, Thyroid Stimulating Hormone (TSH), and anti-thyroid peroxidase (anti-TPO) antibodies. • The clinical and laboratory documentations listed below are to be collected and recorded in source documents as soon as possible: • Potential false positive circumstances: smoking status, proton-pump inhibitor treatments (eg, omeprazole), autoimmune thyroid diseases (Hashimoto's thyroiditis or Grave's disease), differentiated thyroid cancer, hypercalcemia, hypergastrinemia, chronic renal insufficiency (not on dialysis), other neuro-endocrine tumors (lung small cell cancer, intestinal carcinoid), acute pulmonary inflammatory conditions, or sepsis; • Specific personal and/or familial medical history in relation to thyroid or other endocrine diseases; • Specific physical examination (neck, thyroid gland).
If the retest confirms that the calcitonin value is […]: • The event must be reported in the e-CRF on the specific AE form and specific complementary form for “increased calcitonin […]” with all appropriate clinical and laboratory documentation. • An ultrasound scan of the thyroid should be performed and the patient may be referred to a thyroid specialist if judged necessary. • The patient should continue to be followed according to protocol schedule (including planned calcitonin measurements). […] As far as possible, blood should be collected 1 to 2 weeks after IMP discontinuation and sent to the central laboratory for calcitonin measurement. • If at any time during follow-up a calcitonin value ≥20 pg/mL increases by 20% or more between 2 assessments (while remaining below 50 pg/mL), a repeated measurement should be performed earlier than scheduled in the protocol, ie, 1 month later. Once results are available, discussion with Sponsor should be initiated without delay for further guidance. 9.6.7 Monitoring of Renal Function in Case of Prolonged and Severe Nausea and Vomiting

[9] = on-treatment period, Safety population
[10] = PT, on-treatment period, Safety population

With “Gly(A21)-Arg(B31)-Arg(B32)-human insulin [Insulin Glargine]” the “Patients with AE of ALT increase” value ([1]; Example 2) was 2 patients, the “Events reported on the AE form for ALT increase: Alanine aminotransferase increased” value ([1]; Safety population) was 2 (0.4%) n (%) and the “Patients with events reported on the AE form for ALT increase: Any” value ([1]; Safety population) was 2 (0.4%) n (%). For the same substance, the “Events adjudicated as major cardiovascular events by CAC, % of patients” value (patients with T2DM [2]; Example 3) was 1.1%, the “Events adjudicated as major cardiovascular events by CAC, number of patients” value (patients with T2DM [2]; Example 3) was 4 patients and the “% of patients with events adjudicated as major cardiovascular events by CAC: Any” value (patients with T2DM [2]; [9]) was 1.1%. For the same substance, the “% of patients with events adjudicated as major cardiovascular events by CAC: Cardiovascular death” value (patients with T2DM [2]; [9]) was 0.3%, the “% of patients with events adjudicated as major cardiovascular events by CAC: Coronary revascularization procedure” value (patients with T2DM [2]; [9]) was 0.8% and the “% of patients with events adjudicated as major cardiovascular events by CAC: Hospitalization for heart failure” value (patients with T2DM [2]; [9]) was 0.3%. The “Number of patients with events adjudicated as major cardiovascular events by CAC: Any” value (patients with T2DM [2]; [9]) was 4, the “Number of patients with events adjudicated as major cardiovascular events by CAC: Cardiovascular death” value (patients with T2DM [2]; [9]) was 1 and the “Number of patients with events adjudicated as major cardiovascular events by CAC: Coronary revascularization procedure” value (patients with T2DM [2]; [9]) was 3. The “Number of patients with events adjudicated as major cardiovascular events by CAC: Hospitalization for heart failure” value (patients with T2DM [2]; [9]) was 1, the “Number of patients with events adjudicated as major cardiovascular events by CAC: Hospitalization for unstable angina” value (patients with T2DM [2]; [9]) was 0 and the “Number of patients with events adjudicated as major cardiovascular events by CAC: Non-fatal myocardial infarction” value (patients with T2DM [2]; [9]) was 0. The “Number of patients with events adjudicated as major cardiovascular events by CAC: Non-fatal stroke” value (patients with T2DM [2]; [9]) was 0, the “Allergic reaction by ARAC: All; Anaphylactic reaction” value ([3]; in vivo) was 0 Number (%) and the “Allergic reaction by ARAC: All; Angioedema” value ([3]; in vivo) was 0 Number (%). The “Allergic reaction by ARAC: All; Other allergic reaction; Conjunctivitis allergic” value ([3]; in vivo) was 1 (0.2%) Number (%), the “Allergic reaction by ARAC: All; Other allergic reaction; Rhinitis allergic” value ([3]; in vivo) was 2 (0.4%) Number (%) and the “Allergic reaction by ARAC: Not related to IMP; Angioedema” value ([3]; in vivo) was 0 Number (%). For the same substance, the “Allergic reaction by ARAC: Not related to IMP; Any category; Any event” value ([3]; in vivo) was 3 (0.6%) Number (%), the “Allergic reaction by ARAC: Not related to IMP; Other allergic reaction; Conjunctivitis allergic” value ([3]; in vivo) was 1 (0.2%) Number (%) and the “Allergic reaction by ARAC: Not related to IMP; Other allergic reaction; Rhinitis allergic” value ([3]; in vivo) was 2 (0.4%) Number (%). The “Allergic reaction by ARAC: Possibly related to IMP; Anaphylactic reaction” value ([3]; in vivo) was 0 Number (%), the “Allergic reaction by ARAC: Possibly related to IMP; Any category; Any event” value ([3]; in vivo) was 0 Number (%) and the “Allergic reactions possibly related to IMP (ARAC), number of patients” value ([3]; in vivo) was “none”. For the same substance, the “Patients with events adjudicated as allergic reaction by ARAC: All; Any category; Any event” value ([3]; in vivo) was 3 (0.6%) Number (%), the “Allergic reaction by ARAC: All; Urticaria (hives); Urticaria” value [3, 9] was 1 (0.2%) Number (%) and the “Allergic reaction by ARAC: Not related to IMP; Urticaria (hives); Urticaria” value [3, 9] was 1 (0.2%) Number (%). For the same substance, the “Allergic reaction by ARAC: Possibly related to IMP; Urticaria (hives); Urticaria” value [3, 9] was 0 Number (%), the “Patients reporting pen-related events, %” value (patients with T2DM [4]; Example 3) was 4.1% and the “Patients reporting pen-related events, number” value (patients with T2DM [4]; Example 3) was 15 patients. The “% of patients with events reported in pen-related event questionnaire: Any pen-related events” value (patients with T2DM [4]; Safety population) was 4.1%, the “% of patients with events reported in pen-related event questionnaire: Not associated with a clinical event” value (patients with T2DM [4]; Safety population) was 4.1% and the “Number of patients with events reported in pen-related event questionnaire: Any pen-related events” value (patients with T2DM [4]; Safety population) was 15. The “Number of patients with events reported in pen-related event questionnaire: Associated with a clinical event” value (patients with T2DM [4]; Safety population) was 0, the “Number of patients with events reported in pen-related event questionnaire: Not associated with a clinical event” value (patients with T2DM [4]; Safety population) was 15 and the “Patients who received rescue therapy, %” value [5] was 3.4%. For the same substance, the “Patients who received rescue therapy, number” value [5] was 16 patients, the “Patients who received rescue therapy, %” value (patients with T2DM [6]) was 6.0% and the “Patients who received rescue therapy, number” value (patients with T2DM [6]) was 22 patients. For the same substance, the “Documented (≤70 mg/dL) symptomatic hypoglycemia event rate per patient-year” value ([7]; Example 2) was 1.22 per patient-year, the “Events of severe symptomatic hypoglycemia” value ([7]; Example 2) was 1 event and the “Incidence of documented (≤70 mg/dL) symptomatic hypoglycemia” value ([7]; Example 2) was 23.6%. The “Number of symptomatic hypoglycemia events” value ([7]; Example 2) was 338 events, the “Patients reporting symptomatic hypoglycemia (protocol definition)” value ([7]; Example 2) was 25.5% and the “Symptomatic hypoglycemia events per patient-year” value ([7]; Example 2) was 1.29 events per patient-year. For the same substance, the “Documented symptomatic hypoglycemia (plasma glucose < 60 mg/dL [[…]]): Number of events” value [7, 9] was 75, the “Documented symptomatic hypoglycemia (plasma glucose < 60 mg/dL [[…]]): Number of events per patient year” value [7, 9] was 0.29 per patient year and the “Documented symptomatic hypoglycemia (plasma glucose < 60 mg/dL [[…]]): Number of patients with events” value [7, 9] was 50 (10.7%) n (%). For the same substance, the “Documented symptomatic hypoglycemia (plasma glucose < 60 mg/dL [[…]]): Number of patients with events per patient year” value [7, 9] was 0.19 per patient year, the “Documented symptomatic hypoglycemia (plasma glucose ≤ 70 mg/dL [[…]]): Number of events” value [7, 9] was 321 and the “Documented symptomatic hypoglycemia (plasma glucose ≤ 70 mg/dL [[…]]): Number of events per patient year” value [7, 9] was 1.22 per patient year. The “Documented symptomatic hypoglycemia (plasma glucose ≤ 70 mg/dL [[…]]): Number of patients with events” value [7, 9] was 110 (23.6%) n (%), the “Documented symptomatic hypoglycemia (plasma glucose ≤ 70 mg/dL [[…]]): Number of patients with events per patient year” value [7, 9] was 0.42 per patient year and the “Probable symptomatic hypoglycemia: Number of events” value [7, 9] was 16. The “Probable symptomatic hypoglycemia: Number of events per patient year” value [7, 9] was 0.06 per patient year, the “Probable symptomatic hypoglycemia: Number of patients with events” value [7, 9] was 12 (2.6%) n (%) and the “Probable symptomatic hypoglycemia: Number of patients with events per patient year” value [7, 9] was 0.05 per patient year. For the same substance, the “Severe symptomatic hypoglycemia: Number of events” value [7, 9] was 1, the “Severe symptomatic hypoglycemia: Number of events per patient year” value [7, 9] was under 0.01 per patient year and the “Severe symptomatic hypoglycemia: Number of patients with events” value [7, 9] was 1 (0.2%) n (%). For the same substance, the “Severe symptomatic hypoglycemia: Number of patients with events per patient year” value [7, 9] was under 0.01 per patient year, the “Symptomatic hypoglycemia: Number of events” value [7, 9] was 338 and the “Symptomatic hypoglycemia: Number of events per patient year” value [7, 9] was 1.29 per patient year. For the same substance, the “Symptomatic hypoglycemia: Number of patients with events” value [7, 9] was 119 (25.5%) n (%), the “Symptomatic hypoglycemia: Number of patients with events per patient year” value [7, 9] was 0.45 per patient year and the “Patients with TEAE of increased calcitonin (≥20 pg/mL)” value (patients with T2DM [8]; Example 3) was “Two”. For the same substance, the “% of patients with events reported on the AE form for increased calcitonin (≥20 ng/L): Blood calcitonin increased” value (patients with T2DM [8]; [10]) was 0.5%, the “Number of patients with events reported on the AE form for increased calcitonin (≥20 ng/L): Blood calcitonin increased” value (patients with T2DM [8]; [10]) was 2 and the “% of patients with events reported on the AE form for increased calcitonin (≥20 ng/L): Any” value (patients with T2DM [8]; [9]) was 0.5%. The “Number of patients with events reported on the AE form for increased calcitonin (≥20 ng/L): Any” value (patients with T2DM [8]; [9]) was 2.

From patent publication US12186374B2 (Sanofi-Aventis Deutschland GmbH, priority 2014, dated 2025)
